The supplement of paper PMC11246515
± gives the standard deviation of the averaged measurements.

Experiment: total protein half-life in vivo (active degradation + dilution); higher = more stable protein
[1] = E. coli NCM3722 delta-clpP delta-lon delta-hslV, growth: N-lim chemostat, doubling time 6 h
[2] = E. coli NCM3722 delta-clpP, growth: N-lim chemostat, doubling time 6 h
[3] = E. coli NCM3722 delta-hslV, growth: N-lim chemostat, doubling time 6 h
[4] = E. coli NCM3722 delta-smpB, growth: N-lim chemostat, doubling time 6 h
[5] = wild type E. coli NCM3722, growth: C-lim chemostat, doubling time 3 h
[6] = wild type E. coli NCM3722, growth: C-lim chemostat, doubling time 6 h
[7] = wild type E. coli NCM3722, growth: C-lim chemostat, doubling time 12 h
[8] = wild type E. coli NCM3722, growth: N-lim chemostat, doubling time 6 h
[9] = wild type E. coli NCM3722, growth: N-lim chemostat, doubling time 12 h
[10] = wild type E. coli NCM3722, growth: P-lim chemostat, doubling time 6 h
[11] = wild type E. coli NCM3722, growth: P-lim chemostat, doubling time 12 h
[12] = E. coli NCM3722 delta-lon, growth: N-lim chemostat, doubling time 6 h

Sequence | total protein half-life in vivo [1] [h] | total protein half-life in vivo [2] [h] | total protein half-life in vivo [3] [h] | total protein half-life in vivo [4] [h] | total protein half-life in vivo [5] [h] | total protein half-life in vivo [6] [h] | total protein half-life in vivo [7] [h] | total protein half-life in vivo [8] [h] | total protein half-life in vivo [9] [h] | total protein half-life in vivo [10] [h] | total protein half-life in vivo [11] [h] | total protein half-life in vivo [12] [h]
MKKFALLAGLFVFAPMTWAQDYNIKNGLPSETYITCAEANEMAKTDSAQVAEIVAVMGNASVASRDLKIEQSPELSAKVVEKLNQVCAKDPQMLLITAIDDTMRAIGKK [P0AB46] | 3 ± 0.32 | 4 | 6.28 | 4.66 ± 0.55 | 2.77 | 4.69 ± 0.2 | 6.77 ± 0.093 | 4.93 | 10.1 ± 2.6 | 4.4 ± 1.1 | 8.95 ± 0.44 | –
MKKFSGIIPPVSSTFHRDGTLDKKAMREVADFLINKGVDGLFYLGTGGEFSQMNTAQRMALAEEAVTIVDGRVPVLIGVGSPSTDEAVKLAQHAQAYGADGIVAINPYYWKVAPRNLDDYYQQIARSVTLPVILYNFPDLTGQDLTPETVTRLALQNENIVGIKDTIDSVGHLRTMINTVKSVRPSFSVFCGYDDHLLNTMLLGGDGAITASANFAPELSVGIYRAWREGDLATAATLNKKLLQLPAIYALETPFVSLIKYSMQCVGLPVETYCLPPILEASEEAKDKVHVLLTAQGILPV | 4.88 ± 0.66 | 2.73 ± 0.14 | – | 3.17 ± 1.4 | 2.83 ± 0.1 | 4.76 ± 0.24 | 9.39 ± 0.15 | 3.68 | – | – | 11.11 ± 0.052 | –
MKKGTVLNSDISSVISRLGHTDTLVVCDAGLPIPKSTTRIDMALTQGVPSFMQVLGVVTNEMQVEAAIIAEEIKHHNPQLHETLLTHLEQLQKHQGNTIEIRYTTHEQFKQQTAESQAVIRSGECSPYANIILCAGVTF | 5.99 ± 0.1 | 5.79 ± 2.1 | 4.85 | 4.78 ± 0.7 | 3.49 ± 0.2 | 6.69 ± 1.8 | 10.6 ± 0.4 | 4.95 ± 0.51 | 6.08 | 6.43 ± 0.15 | 13.3 ± 2.3 | –
MKKIALIIGSMIAGGIISAAGFTWVAKAEPPAEKTSTAERKILFWYDPMYPNTRFDKPGKSPFMDMDLVPKYADEESSASGVRIDPTQTQNLGVKTATVTRGPLTFAQSFPANVSYNEYQYAIVQARAAGFIDKVYPLTVGDKVQKGTPLLDLTIPDWVEAQSEYLLLRETGGTATQTEGILERLRLAGMPEADIRRLIATQKIQTRFTLKAPIDGVITAFDLRAGMNIAKDNVVAKIQGMDPVWVTAAIPESIAWLVKDASQFTLTVPARPDKTLTIRKWTLLPGVDAATRTLQLRLEVDNADEALKPGMNAWLQLNTASEPMLLIPSQALIDTGSEQRVITVDADGRFVPKRVAVFQASQGVTALRSGLAEGEKVVSSGLFLIDSEANISGALERMRSESATHAH | 2.95 | 4.8 | 5.69 ± 0.66 | 4.32 ± 1.3 | > 4 | 5.79 | > 16 | 5.73 ± 0.53 | 10.2 ± 0.68 | 5.52 ± 0.11 | 10.7 ± 0.35 | 4.62
MKKIDAIIKPFKLDDVREALAEVGITGMTVTEVKGFGRQKGHTELYRGAEYMVDFLPKVKIEIVVPDDIVDTCVDTIIRTAQTGKIGDGKIFVFDVARVIRIRTGEEDDAAI [P0A9Z1] | 5.76 ± 0.58 | 5.59 ± 1.1 | 5.06 ± 0.23 | 4.77 ± 0.36 | 3.3 ± 0.45 | 5.57 ± 0.17 | 10.5 ± 1.1 | 4.68 ± 0.49 | 8.91 ± 0.19 | 5.77 ± 0.31 | 11.6 ± 0.54 | 5.35 ± 0.13
MKKIIALMLFLTFFAHANDSEPGSQYLKAAEAGDRRAQYFLADSWFSSGDLSKAEYWAQKAADSGDADACALLAQIKITNPVSLDYPQAKVLAEKAAQAGSKEGEVTLAHILVNTQAGKPDYPKAISLLENASEDLENDSAVDAQMLLGLIYANGVGIKADDDKATWYFKRSSAISRTGYSEYWAGMMFLNGEEGFIEKNKQKALHWLNLSCMEGFDTGCEEFEKLTNG [P0AF56] | 2.83 ± 0.045 | 2.24 ± 1.1 | – | 0.675 | 1.04 ± 0.074 | 1.62 ± 0.75 | 2.73 ± 2.1 | 1.12 | 0.655 | 1.33 ± 0.63 | 1.48 ± 0.49 | 1.32
MKKISLPKIGIRPVIDGRRMGVRESLEEQTMNMAKATAALLTEKLRHACGAAVECVISDTCIAGMAEAAACEEKFSSQNVGLTITVTPCWCYGSETIDMDPTRPKAIWGFNGTERPGAVYLAAALAAHSQKGIPAFSIYGHDVQDADDTSIPADVEEKLLRFARAGLAVASMKGKSYLSLGGVSMGIAGSIVDHNFFESWLGMKVQAVDMTELRRRIDQKIYDEAELEMALAWADKNFRYGEDENNKQYQRNAEQSRAVLRESLLMAMCIRDMMQGNSKLADIGRVEESLGYNAIAAGFQGQRHWTDQYPNGDTAEAILNSSFDWNGVREPFVVATENDSLNGVAMLMGHQLTGTAQVFADVRTYWSPEAIERVTGHKLDGLAEHGIIHLINSGSAALDGSCKQRDSEGNPTMKPHWEISQQEADACLAATEWCPAIHEYFRGGGYSSRFLTEGGVPFTMTRVNIIKGLGPVLQIAEGWSVELPKDVHDILNKRTNSTWPTTWFAPRLTGKGPFTDVYSVMANWGANHGVLTIGHVGADFITLASMLRIPVCMHNVEETKVYRPSAWAAHGMDIEGQDYRACQNYGPLYKR | 4.26 ± 0.39 | 4.38 | – | 3.21 | 3.42 ± 0.12 | 5.12 ± 0.1 | 9.64 ± 0.84 | 2.78 ± 0.2 | – | 5.22 ± 0.62 | 10.9 ± 1.1 | 3.06
